From the supplement of paper PMC9170038

Tests used:
[1] = test system: K4 kissing-loop RNA reporter; experiment: apparent KD of K4 kissing-loop reporter; higher = weaker reporter binding; conditions: Eterna round: R107;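 note: bound reporter read as fluorescence of individual clusters on recovered sequencing chips by microscopy, with normalized cluster intensities fitted with a binding model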
Procedure: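 RNA-MaP round R107: designed RNA switches with theophylline, tryptophan, arginine or FMN aptamers are transcribed on-chip within common flanks. They are titrated with a labelled K4 kissing-loop RNA reporter in RNA-MaP buffer (100 mM Tris pH 7.5, 80 mM KCl, 4 mM MgCl2), without ligand or with the indicated ligand. Median apparent KD per design.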

MS2 coat protein = experiment: apparent KD of MS2 coat protein; designed switch direction (-1 OFF switch, 1 ON switch): -1; higher = weaker reporter binding
In short: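 Transcription of designed RNA switches on Illumina chips was done by stalled E. coli RNA polymerase. SNAP-549-labelled MS2 coat protein was then titrated in doubling steps from 0.7 or 1.5 nM to 3 µM, with steps of 0.8–1.5 h at the lowest and 10–20 min at the highest concentration. The per-design median over clusters of curve-fitted normalised fluorescence is reported as apparent KD.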

[2] = input ligand: theophylline 20 uM
[3] = input ligand: tryptophan 2.4 mM
[4] = Eterna round: R95, input ligand: microRNA oligo, concentration not stated
[5] = Eterna round: R95, input ligand: FMN 200 uM
[6] = Eterna round: R95, input ligand: none
[7] = input ligand: microRNA oligo, concentration not stated

Row | Sequence | apparent KD of K4 kissing-loop reporter ([1]; input ligand: FMN 200 uM) | apparent KD of K4 kissing-loop reporter ([1]; input ligand: arginine 13.2 mM) | apparent KD of K4 kissing-loop reporter ([1]; input ligand: none) | apparent KD of K4 kissing-loop reporter [1, 2] | apparent KD of K4 kissing-loop reporter [1, 3] | other results
1 | AGUGGACAUGUCUAGAGUGAUGUUCUGGAUACCAGACACGAAAGUGUCCCUUGGCAGCCGGAGUGAUGUUCUGGCGUUCACUAAA [Omei KL Theo A Exc B v7] | 0.476 µM | 0.267 µM | 0.405 µM | 0.414 µM | 0.341 µM | –
2 | CACUUACGUAGUGAUGUUACGAUCUCUGAUACCAGACAACUCUAAGUCCCUUGGCAGCAGUCAUUUUGCUUAUAAUUUACUCAAA [JR_ExcTheophyA_Sub015] | 0.657 µM | 0.556 µM | 0.786 µM | 0.646 µM | 0.508 µM | –
3 | UGUAUGUGUCAGCGAGUGAUGUUCGACGAUACCAGACUCGAUAGAGUCCCUUGGCAGCGUAAUGCAUGCCAACUGGCACAUACUA [#SwitchBubble 12 #K4Early] | 0.745 µM | 0.651 µM | 0.837 µM | 0.608 µM | 0.597 µM | –
4 | UGAUGUUUAGGUCACCCAGUGAUGUUGGAAGGAGCGUGCGAAAGCACAGGUAGGUCGCCAACCUAAAAGUGACCUGAGCAUCUAA [#SwitchBubble 8 #K4Early] | 0.496 µM | 0.21 µM | 0.511 µM | 0.427 µM | 0.846 µM | –
5 | UGACUGGACUGAAGGAGCGGGCGAGACAAAGUCUCGAACUCGUAGUGAUGUUACGAAAUAACCCAGGUAGGUCGCAGUCUAGUCU | 0.0778 µM | 0.062 µM | 0.0749 µM | 0.0672 µM | 0.0749 µM | –
6 | GAGAUAGAGGCGGCCGCCACUAGUGAUGUUAGUGAUGUUAGAAAGAGAAUAGAACAGGGAUUAGAUAGGACCGGGCCAGAUGGAG [vvhmullin] | 0.0644 µM | 0.046 µM | 0.0604 µM | 0.0622 µM | 0.0601 µM | –
7 | GGAUCCACCAGUGAUGUUGGAGAAAACUCUAAGGAUAUGACGAAAGUCAGAAGGUGGUAGACUGGACAAAGUCCGGUCGGAUCCA [FmnA 23 U30] | 1.21 µM | 0.177 µM | 0.397 µM | 0.263 µM | 0.347 µM | –
8 | CGCGCUGCCUGAGGAUAUAGAAACGAGUGAUGUUCGUGGACAAGAGCCAGUGAUGUUGGGUUAUUUCUAGAAGGCAGGCGAUCGU [Exclusion FMN B GF5] | 0.124 µM | 0.106 µM | 0.128 µM | 0.125 µM | 0.0975 µM | –
9 | CGGCGUGCCUUAUCCUCAUCUCUGACUCAACGAGGACCGGUACGGCCGCCACUCGGAAGAGGCAGUGAUGUUGCCUACGCCGGUG [Oronat] | 0.0763 µM | 0.0827 µM | 0.0773 µM | 0.0823 µM | 0.0814 µM | –
10 | GUAUAUCGAACUGAUACCAGAGAAUAUAGCAGUGAUGUUGCAUAUAUGAAUAAGACUCGACUCCCUUGGCAGCGGGAAGAUAUAC [On purpose 2] | 0.132 µM | 0.169 µM | 0.137 µM | 0.166 µM | 0.142 µM | –
11 | UGGAGUUGACGAAAAGUCAACUCCCGAGAAGGAGCGGACGAAAGUCCAGGUAGGUCGCUCGCUACCAGUGAUGUUGGUACAUAAA | 0.101 µM | 0.153 µM | 0.13 µM | 0.147 µM | 0.109 µM | –
12 | UGUAUGGACUGAAGGAGCGCUAGGAAAGUGAGUGAUGUUCAUAUAAAAGUAUAAAGGGUUUGGCAGGUAGGUCGCAGUCCAUACU [KL-SSArg B5] | 0.225 µM | 0.344 µM | 0.234 µM | 0.27 µM | 0.135 µM | –
13 | CCCUCACUUGAGGAUCACCCAAGUCAGGAUAUCUCACCCAUCCUACGGGACGGGUCACAGAGAAGGGACUAAAA [Isdius] (Eterna round: R97, puzzle: Exclusion 1) | – | – | – | – | – | apparent KD of MS2 coat protein (MS2 coat protein; input ligand: FMN 200 uM): 0.0373 µM; apparent KD of MS2 coat protein (MS2 coat protein; input ligand: none): 0.02 µM
14 | CCGAGGCUAGGAUAUUGACGAUAAUACAUGAGGAUCACCCAUGUGAGUCGUGUAUGCGCGCAAGAAGGAGUAAUAA [Tiorreonbi] (puzzle: Exclusion 5) | – | – | – | – | – | apparent KD of MS2 coat protein (MS2 coat protein; [4]): 0.0152 µM
15 | AAGAAACAUGAGGAUCACCCAUGUGAGGAUAUGUAAAAUAAAAUAAAAGAAAUAAUAAACAGAAGGCACAAAGG [Mat - Mod of Hog D16] (puzzle: Exclusion 1) | – | – | – | – | – | apparent KD of MS2 coat protein (MS2 coat protein; [5]): 0.0472 µM; apparent KD of MS2 coat protein (MS2 coat protein; [4]): 0.0298 µM; apparent KD of MS2 coat protein (MS2 coat protein; [6]): 0.0418 µM
16 | CAGUACUGAGGAUAUACAUGAGGAUCACCCAUGUGUUCCAGCUAGGAAACUAGCAAUAGUAGAAGGCAGUACUG [salish99_ex3_r3_090x] (Eterna round: R96, puzzle: Exclusion 3) | – | – | – | – | – | apparent KD of MS2 coat protein (MS2 coat protein; input ligand: FMN 200 uM): 0.417 µM; apparent KD of MS2 coat protein (MS2 coat protein; [7]): 0.0191 µM; apparent KD of MS2 coat protein (MS2 coat protein; input ligand: none): 0.0232 µM
17 | UUUUAACAUGAGGAUCACCCAUGUGAGGAUAUCGAAAUUUAUAUUUAUAUUUAUAUUACGAGAAGGCACAUUUU [JMF 98] (puzzle: Exclusion 1) | – | – | – | – | – | apparent KD of MS2 coat protein (MS2 coat protein; [4]): 0.0843 µM
18 | AAGUAUAGAGGAUAUAGUAGGUACAACAUGAGGAUCACCCAUGUUCUUCAUAACGUAUUUCUAGAAGGCUGAUAAA [EX-5 Malc#27] (Eterna round: R96, puzzle: Exclusion 5) | – | – | – | – | – | apparent KD of MS2 coat protein (MS2 coat protein; input ligand: FMN 200 uM): 0.356 µM; apparent KD of MS2 coat protein (MS2 coat protein; [7]): 0.135 µM; apparent KD of MS2 coat protein (MS2 coat protein; input ligand: none): 0.126 µM
19 | CGGAGCAGAGGGAGAUCCAACAUGAGGAUCACCCAUGUCUCAUAAGCUUUUUGCUCAUCUUAUUGUACCUUGGUGCU [JL ViennaUCT Edcesobi mod 5] (puzzle: Sensor v3, turn-off variant 1) | – | – | – | – | – | apparent KD of MS2 coat protein (MS2 coat protein; [5]): 0.0373 µM; apparent KD of MS2 coat protein (MS2 coat protein; [4]): 0.0154 µM; apparent KD of MS2 coat protein (MS2 coat protein; [6]): 0.0464 µM
20 | GCGCUGCGAGGAUAUACAUGAGGAUCACCCAUGUGUCGGCAGCCAUGUUAGUACAAAUGUAGAAGGCGCGUAAA [EX3 #61] (Eterna round: R97, puzzle: Exclusion 3) | – | – | – | – | – | apparent KD of MS2 coat protein (MS2 coat protein; input ligand: FMN 200 uM): 0.0208 µM; apparent KD of MS2 coat protein (MS2 coat protein; input ligand: none): 0.0183 µM
21 | UAUGUGUCAGGAUAUUAGUAGUAAAUAAAUAAAAUUAUUACUGAGAAGGGACAUGAGGAUCACCCAUGUACCUU [JR_Ex4_Sub051] (Eterna round: R97, puzzle: Exclusion 4) | – | – | – | – | – | apparent KD of MS2 coat protein (MS2 coat protein; input ligand: FMN 200 uM): 0.0226 µM; apparent KD of MS2 coat protein (MS2 coat protein; input ligand: none): 0.0162 µM
22 | GAUUAUGCGAGCUUUAGGGACAUGAGGAUCACCCAUGUUCGUCUUAUUAAUCUGGGUGCACUGACAUACCUAAAUCU [JMF 92] (puzzle: Sensor v3, turn-off variant 1) | – | – | – | – | – | apparent KD of MS2 coat protein (MS2 coat protein; [5]): 0.0909 µM; apparent KD of MS2 coat protein (MS2 coat protein; [4]): 0.0819 µM; apparent KD of MS2 coat protein (MS2 coat protein; [6]): 0.132 µM
